Experimental data as given in US20230322958A1 (Genentech, published 2023).
Where a chain is given by its changes, count along the chain named. Names may count otherwise.

B1: rat.1B2 (rat/human chimeric anti-Notch2 antibody 1B2) (antibody, V domains shown)
VH: EVKLVDYGGGLVQPGASLRLSCEVSGFTFSDFYMEWIRQAPGKGLEWIAASRNKANNFSIVYSASVKDRFTISRDTYKSILYLQMSTLKPEDTAVYYCSRDSGRWGLDAWGQGTSVIVSS
VL: DIQMTQSPASLSASLGETVTIQCQTSEDIYSGLAWYHQKPGKSPQLLIYGASRLQDGVPSRFTGSGSGTQYSLKISSMQTEDEGVYFCQQGFKYPLTFGSGTKLEIK
notes: also called 1B2 Chimeric; chimeric 1B2
B2: rb.2338 (rabbit/human chimeric anti-Notch2 antibody 2338) (antibody, V domains shown)
VH: QSLEESGGDLVKPGASLTLTCTASGFSFSSGYDMCWVRQAPGKGLEWIACIYAGSEGFTYYASWAKGRFTISKSSSTTVTLQMTSLTVADTATYFCARWTDSDGSNLWGPGTLVTVSS
VL: DVVMTQTPASVEAAVGGTVTIKCQASQSISSYLAWYQQKPGQPPKLLIYRASKLASGVPSRFSGRGSGTQFTLTISDLECADAATYYCQSNSYGNNWVGGFGGGTKVEIK
B3: 1B2.v104.huFab.LC_K149C.dPEG_trimer (other)
heavy: EVQLVESGGGLVQPGGSLKLSCAVSGFTFSDFYMEWVRQASGKGLEWVAAQRNKANDFSIVYSASVKDRFTISRDDSKSTLYLQMNSLKTEDTAVYYCSRDGGKLALDAWGQGTLVTVSSASTKGPSVFPLAPSSKSTSGGTAALGCLVKDYFPEPVTVSWNSGALTSGVHTFPAVLQSSGLYSLSSVVTVPSSSLGTQTYICNVNHKPSNTKVDKKVEPKSCD
light: DIQMTQSPSSVSASVGDRVTITCQTSEDIYSGLAWYQQKPGKSPKLLIYGASRLQDGVPSRFSGSGSGTDYTLTISSLQPEDFATYYCQQGFKYPLTFGGGTKVEIKRTVAAPSVFIFPPSDEQLKSGTASVVCLLNNFYPREAKVQWCVDNALQSGNSQESVTEQDSKDSTYSLSSTLTLSKADYEKHKVYACEVTHQGLSSPVTKSFNRGEC
modifications: engineered Cys (K149C) joined through maleimide to Tri(Mal-PEG2-amide)-amine
notes: also called 1B2.v104 Fab trimer; aN2.1B2.Fab-trimer
B4: rb.2430 (rabbit/human chimeric anti-Notch2 antibody 2430) (antibody, V domains shown)
VH: QSVEESGGRLVTPGTPLTLTCTVSGFSLSSYDMSWVRQAPGKGLEWIGIIQAGSNTLFYASWAKGRFTISKTSTTVDLKITSPTTEDTATYFCARGGVIFIIGHFNLWGPGTLVTVSS
VL: AQVLTQTASSVSAAVGGTVTINCQASQSVVNNRLAWYQQKPGQPPKLLMYGASTLESGVSSRFKGSGSGTQFTLTISGVQCDDAATYYCQGEFLCSSGDCVAFGGGTKVEIK
B5: hu1B2.L1H1.DFS (antibody, V domains shown)
VH: EVQLVESGGGLVQPGGSLKLSCAVSGFTFSDFYMEWIRQASGKGLEWIAASRNKANDFSIVYSASVKDRFTISRDTSKSTLYLQMNSLKTEDTAVYYCSRDSGRWGLDAWGQGTLVTVSS
VL: DIQMTQSPSSVSASVGDRVTITCQTSEDIYSGLAWYQQKPGKSPKLLIYGASRLQDGVPSRFSGSGSGTDYTLTISSLQPEDFATYFCQQGFKYPLTFGGGTKVEIK
notes: Human IgG1 backbone; also called hu1B2.v1.DFS
B6: 1B2.v104.huIgG1.N297G (antibody, V domains shown)
VH: B5 VH with I37V, I48V, S51Q, T76D, S102G, R104K, W105L, G106A
VL: B5 VL with F87Y
notes: Human IgG1 with N297G; also called Bivalent IgG antibody; 1B2.v104 IgG
B7: 1B2.v104.Fab-huIgG1.N297G (antibody, V domains shown)
VH: B5 VH with I37V, I48V, S51Q, T76D, S102G, R104K, W105L, G106A
VL: B5 VL with F87Y
notes: Tetravalent Fab-IgG format, human IgG1 N297G; also called Tetravalent Fab-IgG; 1B2.v104 Fab-IgG
B8: hu1B2.v102 (antibody, V domains shown)
VH: B5 VH with I37V, I48V, S51Q, T76D, S102G, W105L, G106A
VL: B5 VL with F87Y
notes: Human IgG1 backbone
B9: 1B2.v104.huFab.LC_K149C.MMTS_capped (Fab, V domains shown)
VH: B5 VH with I37V, I48V, S51Q, T76D, S102G, R104K, W105L, G106A
VL: DIQMTQSPSSVSASVGDRVTITCQTSEDIYSGLAWYQQKPGKSPKLLIYGASRLQDGVPSRFSGSGSGTDYTLTISSLQPEDFATYYCQQGFKYPLTFGGGTKVEIKR
modifications: engineered Cys (K149C) capped with MMTS
notes: Monovalent Fab used in the KinExA experiments; also called Monovalent Fab
B10: hu1B2.v104 (antibody, V domains shown)
VH: B5 VH with I37V, I48V, S51Q, T76D, S102G, R104K, W105L, G106A
VL: B5 VL with F87Y
notes: Human IgG1 backbone; also called hu1B2.v014
B11: rb.2621 (rabbit/human chimeric anti-Notch2 antibody 2621) (antibody, V domains shown)
VH: QSLEESGGGLVQPGASLTLTCTASGFSFSSGYDMCWVRQAPGKGLEWIACIVTVSGNTYYASWAKGRFTISKTSSTTVTLQMTSLTAADTATYFCARDGGFTDTWYFHLWGPGTLVTVSS
VL: AYDMTQTPASVEVAVGGTVTIKCQASESIGSYLAWYQQKPGQPPKLLIYRASTLASGVPSRFKGSGSGTEFTLTISGVQCDDAATYYCQQTYSGAGVDNLFGGGTKVEIK

Legend:
[1] = molecular target: T1, huNotch2-EGF6-10 (human, UniProt Q04721 219-418); assay: SPR BIAcore T200, antibody captured on protein A, 37 C
T1 construct: also called human Notch2 EGF6-10
T1 sequence: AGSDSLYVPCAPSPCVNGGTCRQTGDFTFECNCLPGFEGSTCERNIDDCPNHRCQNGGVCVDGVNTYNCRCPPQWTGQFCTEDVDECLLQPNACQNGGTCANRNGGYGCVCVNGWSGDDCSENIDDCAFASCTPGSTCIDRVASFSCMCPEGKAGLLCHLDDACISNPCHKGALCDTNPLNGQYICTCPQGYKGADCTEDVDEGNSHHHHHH
Description: The binding affinities of the antibodies was determined by BIAcore™ T200 machine. Rabbit antibodies were expressed as chimeric antibodies with rabbit variable domains and human constant domains. Rat antibodies were expressed as chimeric antibodies with rat variable domains and human constant regions. Humanized antibodies were expressed in the human IgG1 backbone. For kinetics measurements, antibodies were captured on research grade protein A chip (GE Healthcare) to achieve approximately 300 RU. Ten-fold serial dilutions of huNotch2-EGF6-10 were injected in HBS-P buffer with additional 3 mM CaCl₂ at 37° C. with a flow rate of 100 μL/min. Association rates (ka) and dissociation rates (kd) were calculated using a 1:1 Langmuir binding model (BIAcore™ T200 Evaluation Software version 2.0). The equilibrium dissociation constant (KD) was calculated as the ratio kd/ka.

[2] = molecular target: T2, human Notch2 on U-87 MG cells (human, UniProt Q04721 26-2471); assay: cell-based or functional assay
T2 sequence (Q04721 26-2471): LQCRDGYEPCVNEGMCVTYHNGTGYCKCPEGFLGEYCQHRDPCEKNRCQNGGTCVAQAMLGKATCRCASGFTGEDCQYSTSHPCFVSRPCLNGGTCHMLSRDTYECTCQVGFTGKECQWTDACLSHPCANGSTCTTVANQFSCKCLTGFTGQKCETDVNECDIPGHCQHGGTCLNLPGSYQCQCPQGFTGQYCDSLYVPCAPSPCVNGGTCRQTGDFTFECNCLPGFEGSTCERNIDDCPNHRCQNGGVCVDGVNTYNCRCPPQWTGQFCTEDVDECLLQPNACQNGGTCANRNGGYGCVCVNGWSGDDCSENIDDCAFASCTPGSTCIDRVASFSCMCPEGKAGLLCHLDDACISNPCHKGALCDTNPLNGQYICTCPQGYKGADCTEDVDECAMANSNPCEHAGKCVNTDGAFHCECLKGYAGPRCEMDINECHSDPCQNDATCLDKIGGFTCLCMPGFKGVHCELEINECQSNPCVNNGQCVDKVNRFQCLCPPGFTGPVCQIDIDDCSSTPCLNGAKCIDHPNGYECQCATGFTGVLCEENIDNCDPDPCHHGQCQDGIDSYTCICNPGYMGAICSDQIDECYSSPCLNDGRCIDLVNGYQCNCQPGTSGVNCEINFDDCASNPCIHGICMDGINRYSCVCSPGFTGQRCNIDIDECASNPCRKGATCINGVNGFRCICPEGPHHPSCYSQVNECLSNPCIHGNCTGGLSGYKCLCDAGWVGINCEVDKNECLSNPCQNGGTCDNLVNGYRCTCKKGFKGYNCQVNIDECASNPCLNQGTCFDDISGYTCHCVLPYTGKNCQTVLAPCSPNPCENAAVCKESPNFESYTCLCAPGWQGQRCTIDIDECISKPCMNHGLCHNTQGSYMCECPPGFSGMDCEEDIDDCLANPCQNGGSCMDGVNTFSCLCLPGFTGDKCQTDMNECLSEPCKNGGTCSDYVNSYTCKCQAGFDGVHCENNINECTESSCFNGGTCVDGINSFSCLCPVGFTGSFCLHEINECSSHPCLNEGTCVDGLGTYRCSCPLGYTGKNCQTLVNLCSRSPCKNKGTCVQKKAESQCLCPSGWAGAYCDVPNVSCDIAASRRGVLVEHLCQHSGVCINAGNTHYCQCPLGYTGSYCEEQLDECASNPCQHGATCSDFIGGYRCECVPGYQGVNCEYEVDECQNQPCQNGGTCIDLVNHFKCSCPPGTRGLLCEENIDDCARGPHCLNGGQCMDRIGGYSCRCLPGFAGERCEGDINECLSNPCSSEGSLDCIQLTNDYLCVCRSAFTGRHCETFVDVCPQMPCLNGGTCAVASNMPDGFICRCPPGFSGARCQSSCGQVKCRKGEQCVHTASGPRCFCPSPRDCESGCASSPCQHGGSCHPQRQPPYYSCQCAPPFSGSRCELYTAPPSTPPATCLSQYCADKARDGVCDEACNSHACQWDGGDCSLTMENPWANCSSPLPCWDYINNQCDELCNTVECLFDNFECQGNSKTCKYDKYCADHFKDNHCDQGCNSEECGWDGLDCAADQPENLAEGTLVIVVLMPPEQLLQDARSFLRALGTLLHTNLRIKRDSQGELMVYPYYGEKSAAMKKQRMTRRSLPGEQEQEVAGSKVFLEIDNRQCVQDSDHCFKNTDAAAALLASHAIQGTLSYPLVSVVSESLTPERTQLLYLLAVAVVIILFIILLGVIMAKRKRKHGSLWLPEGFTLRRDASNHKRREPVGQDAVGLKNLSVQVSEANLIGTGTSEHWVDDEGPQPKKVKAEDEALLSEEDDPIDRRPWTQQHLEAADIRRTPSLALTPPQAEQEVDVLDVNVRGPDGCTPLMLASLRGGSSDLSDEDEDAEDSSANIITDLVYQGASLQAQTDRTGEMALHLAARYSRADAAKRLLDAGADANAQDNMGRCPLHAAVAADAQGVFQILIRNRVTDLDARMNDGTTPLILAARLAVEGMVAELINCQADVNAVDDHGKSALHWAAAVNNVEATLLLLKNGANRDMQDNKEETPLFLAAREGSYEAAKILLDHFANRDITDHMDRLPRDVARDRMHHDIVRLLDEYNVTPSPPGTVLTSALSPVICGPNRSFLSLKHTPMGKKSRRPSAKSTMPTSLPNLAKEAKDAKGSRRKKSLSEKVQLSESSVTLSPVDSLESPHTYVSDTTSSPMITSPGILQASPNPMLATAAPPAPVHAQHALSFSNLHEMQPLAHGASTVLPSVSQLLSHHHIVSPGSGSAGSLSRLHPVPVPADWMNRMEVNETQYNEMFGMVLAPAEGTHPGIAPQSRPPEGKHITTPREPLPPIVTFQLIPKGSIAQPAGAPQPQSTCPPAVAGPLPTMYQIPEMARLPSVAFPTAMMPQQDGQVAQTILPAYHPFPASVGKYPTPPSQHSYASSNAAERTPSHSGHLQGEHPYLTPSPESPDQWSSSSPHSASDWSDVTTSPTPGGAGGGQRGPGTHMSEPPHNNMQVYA

[3] = molecular target: T2, human Notch2 on U-87 MG cells; assay: cell-based or functional assay; remark: listed apart in the source
[4] = molecular target: T2, human Notch2 on U-87 MG cells; assay: KinExA equilibrium whole-cell analysis on Notch2-expressing U-87 cells
Description: After incubation, the cells were centrifuged and the supernatants, containing the free fraction of antibody or Fab construct, were removed without disturbing the cell pellets and transferred onto a KinExA 3200 instrument with autosampler (Sapidyne Instruments Inc). Each supernatant was flowed over a solid phase composed of polystyrene beads (#440176, Sapidyne Instruments Inc) coated with biotinylated goat anti-human Immunoglobulin G (IgG) heavy+light (H+L) (#109-065-003, Jackson ImmunoResearch Laboratories Inc.) or biotinylated Notch2 extracellular domain to capture the free antibody or Fab construct. […] The fluorescent signals were recorded and converted to a voltage signal that is directly proportional to the amount of free antibody or Fab construct in the equilibrated sample. Using the built in Equilibrium Whole Cell analysis method, the KinExA Pro software performed a least squares analysis on the measured data to fit optimal solutions for the KD and the activity of the free antibody or Fab construct to a curve representative of a 1:1 reversible bi-molecular interaction. […] A N-curve analysis was applied for the testing of the two concentrations of antibody or Fab construct to determine the KD on Notch2-expressing U-87 cells.
The binding kinetics were determined using a similar assay format as the one used for the equilibrium analysis, with the exception that measurements were collected “pre-equilibrium” and the binding signals were plotted as a function of time. For the KinExA direct method, anti-Notch2 antibody and Fab formats were incubated with Notch2-expressing U-87 cells at a fixed concentration (Table 12) and aliquots of the cell binding solution were collected at different time points to determine the fraction of free antibody or Fab format. The KinExA Pro software was then used to determine the association rate constant (Kₒₙ).

[5] = molecular target: T3, gpNotch2-EGF6-12 (guinea pig); assay: SPR BIAcore, antibody captured on protein A, 37 C
T3 construct: also called guinea pig Notch2 EGF6-12
T3 chain: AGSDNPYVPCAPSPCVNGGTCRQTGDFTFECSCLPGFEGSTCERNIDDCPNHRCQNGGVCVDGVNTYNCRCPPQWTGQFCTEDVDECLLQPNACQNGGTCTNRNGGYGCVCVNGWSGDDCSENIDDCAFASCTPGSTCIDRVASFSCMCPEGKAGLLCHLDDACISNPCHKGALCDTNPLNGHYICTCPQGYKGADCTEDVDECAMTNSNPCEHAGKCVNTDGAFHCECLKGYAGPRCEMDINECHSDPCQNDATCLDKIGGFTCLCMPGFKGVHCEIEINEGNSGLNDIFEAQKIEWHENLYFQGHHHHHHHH
Description: (§1) Binding of the anti-Notch2 antibodies to Notch2 from additional species and to constructs comprising different EGF repeat regions was evaluated by BIAcore™. For this experiment, the antibodies with human constant regions were captured on a protein A chip to achieve approximately 200 RU. Ten-fold serial dilutions of various antigens were injected in HIBS-P buffer with additional 3 mM CaCl₂ at 37° C. with a flow rate of 100 μL/min.

[6] = molecular target: T4, huNotch2-EGF7-9 (human); assay: SPR BIAcore, antibody captured on protein A, 37 C
T4 chain: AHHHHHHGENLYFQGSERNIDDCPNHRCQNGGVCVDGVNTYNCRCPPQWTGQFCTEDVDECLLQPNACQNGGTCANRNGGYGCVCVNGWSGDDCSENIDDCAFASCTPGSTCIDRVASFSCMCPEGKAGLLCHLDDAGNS
Description: as §1

[7] = molecular target: T5, huNotch2-EGF4-7 (human); assay: SPR BIAcore, antibody captured on protein A, 37 C
T5 chain: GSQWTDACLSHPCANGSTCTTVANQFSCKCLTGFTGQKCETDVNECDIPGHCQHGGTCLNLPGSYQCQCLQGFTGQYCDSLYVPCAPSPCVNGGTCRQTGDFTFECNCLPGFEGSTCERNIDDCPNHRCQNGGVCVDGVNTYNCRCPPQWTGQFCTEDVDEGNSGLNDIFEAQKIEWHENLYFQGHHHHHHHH
Description: as §1

[8] = molecular target: T6, huNotch2-EGF5-8 (human); assay: SPR BIAcore, antibody captured on protein A, 37 C
T6 chain: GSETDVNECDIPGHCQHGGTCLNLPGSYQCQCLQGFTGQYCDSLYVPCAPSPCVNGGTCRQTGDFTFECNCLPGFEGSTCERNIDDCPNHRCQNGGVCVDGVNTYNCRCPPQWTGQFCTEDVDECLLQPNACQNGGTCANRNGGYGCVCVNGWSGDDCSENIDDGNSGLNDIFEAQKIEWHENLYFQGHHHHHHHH
Description: as §1

[9] = molecular target: T7, muNotch2-EGF6-12.K268R (mouse); assay: SPR BIAcore, antibody captured on protein A, 37 C
T7 chain: T3 chain with N5S, S32N, F129Y, M148L, H183Q, T207A, I278L, I280V
Description: as §1

Binder	Kd [1] [nM]	koff [1] [s⁻¹]	kon [1] [M⁻¹ s⁻¹]	Jagged1 IC50 [2] [nM]	Kd [4] [nM]	further results
B1	5.21	0.000943	181000	12.5	–	–
B2	–	–	–	3.53	–	–
B3	–	–	–	–	0.0335	DLL Inhibition (IC50) [3]: > 0.7 µM; Jag1 Inhibition (IC50) [3]: 0.5 nM
B4	–	–	–	1.03	–	–
B5	5.15	0.00116	226000	7.9	–	–
B6	–	–	–	–	0.0353	–
B7	–	–	–	–	0.195	–
B8	3.37	0.00131	387000	1.59	–	binding result [5]: binds; binding result [6]: binds; binding result [7]: binds; binding result [8]: binds; binding result [9]: binds
B9	–	–	–	–	1.98	–
B10	3.09	0.0011	357000	2.48	–	binding result [5]: binds; binding result [6]: binds; binding result [7]: binds; binding result [8]: binds; binding result [9]: binds
B11	–	–	–	0.667	–	–
